The results in this text go back to patent US20190269784A1, “Selective Inhibitors of the Polo-Like Kinase 1 Polo-Box Domain” (UNIVERSITY OF SOUTH CAROLINA, priority 2018, published 2019).

By Kd is commonly meant the concentration at which binding is half-saturated. Low readings indicate a tighter complex, high ones a looser complex.

Square brackets hold non-standard residues; d marks the D form. Ends that are not written are not given here. Peptide text beside a SMILES is read from it. * marks the point of attachment. Benzoyl(4-octyl) = CCCCCCCCc1ccc(C(=O)*)cc1; pT = C[C@@H](OP(=O)(O)O)[C@H](N)C(=O)O; X1 = CCCCCCCCCc1ccc(C(=O)*)cc1

Assay [1] deals with polo-box domain (PBD) of polo-like kinase 1 (PLK1) (UniProt P53350). In words: fluorescence polarization competition on PLK1 PBD.
Chain of polo-box domain (PBD) of polo-like kinase 1 (PLK1) (UniProt P53350) (P53350 367-603 limits assumed): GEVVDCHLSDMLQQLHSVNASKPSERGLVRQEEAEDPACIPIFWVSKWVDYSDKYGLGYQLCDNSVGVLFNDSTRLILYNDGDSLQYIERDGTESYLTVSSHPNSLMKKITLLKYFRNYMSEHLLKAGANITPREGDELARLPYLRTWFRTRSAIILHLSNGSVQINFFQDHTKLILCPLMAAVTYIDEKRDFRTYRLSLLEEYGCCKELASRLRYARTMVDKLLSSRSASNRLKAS
Assay [2] addresses polo-box domain (PBD) of polo-like kinase 3 (PLK3) (UniProt Q9H4B4). In words: fluorescence polarization competition on PLK3 PBD.
In assay [3] the target is polo-box domain (PBD) of polo-like kinase 1 (PLK1) (UniProt P53350). In words: from FP IC50s, (IC50 PLK3 PBD/IC50 PLK1 PBD)x5; PLK1 PBD against PLK3 PBD.
Assay [4] relates to BubR1 phosphorylation in PC-3 cells. In words: Immunoblotting for BubR1 phosphorylation and pHH3 in PC-3 cells. The assay is classed as cell-based. To be noted: 5-30 μM, 23 hours. The method, then:
To measure the PLK1 inhibitory activity of the FLIPs in cells, phosphorylation of the mitotic protein BubR1 was measured. PC-3 cells were serum starved for 72 h and released from the G1-S boundary. 16 h after released, cells were arrested at prometaphase by treatment with 100 ng/ml Colcemid or treated with 50 nM BI2536 PLK1 kinase inhibitor or 5-30 μM of Compound No. 18 for 23 hours. Cells were trypsinized and whole cell lysate was prepared. The obtained total cell lysate was subjected to immunoblotting with anti-BubR1 (top panel, FIG. 9), anti-β tubulin (middle panel, FIG. 9), and anti-pHH3 (bottom panel, FIG. 9).

The next assay concerns HeLa cells. Description: MTT cell viability assay, HeLa. In kind it is cell-based. To be noted: no delivery agent. The protocol: (§1) Accordingly, cell viability was measured using an MTT assay to determine the anti-proliferative activity for Compounds No. 15, 16, 17, and 18 with regard to three different cell types (HeLa, PC-3, and A549). The cells utilized were chosen due to reported synthetic lethal interactions with PLK1 inhibition
On the technique in general: Tetrazolium assays rely on reduction of a dye to a coloured formazan, in cell work by metabolically active cells.

The next assay concerns PC-3 cells. In words: MTT cell viability assay, PC-3. In kind it is cell-based. As to conditions: PC-3, PTEN deficient prostate cancer, no delivery agent. The protocol: as §1
Another assay has as its system A549 cells. In words: MTT cell viability assay, A549. In kind it is cell-based. To be noted: A549, Kras mutant lung cancer, no delivery agent. The protocol: as §1
The subject of assay [5] is RPE cells expressing PLK1 C67V mutant. The assay is classed as cell-based. To be noted: for sensitivity of RPE cells to FLIPs, in words: FIG. 8.
The target in the next assay is PLK1 PBD (Homo sapiens, UniProt P53350). Description: Fluorescence polarization competitive binding assay, PLK1 PBD. The protocol:
According to the assay, binding of a fluorescent tracer peptide to a protein increased polarization of the emitted fluorescence. […] The ability of test molecules to bind to the PBD was quantitated by a reduction in mP values that occurred as the tracer was displaced from the PBD, and plotted to calculate as an IC50 value.
(§2) The affinities of the peptides for PLK1 and PLK3 were measured by plotting the loss of polarization against increasing concentration of competitor peptide through use of an optimized assay and selectivity determination.
A general note: Polarisation of emitted light reports the rotation of a fluorescent probe.

The next assay concerns the target T1, PLK3 PBD (Homo sapiens, UniProt Q9H4B4).
T1 construct: A similar assay format was developed for the PLK3 PBD
T1 sequence (Q9H4B4 335-646 limits assumed): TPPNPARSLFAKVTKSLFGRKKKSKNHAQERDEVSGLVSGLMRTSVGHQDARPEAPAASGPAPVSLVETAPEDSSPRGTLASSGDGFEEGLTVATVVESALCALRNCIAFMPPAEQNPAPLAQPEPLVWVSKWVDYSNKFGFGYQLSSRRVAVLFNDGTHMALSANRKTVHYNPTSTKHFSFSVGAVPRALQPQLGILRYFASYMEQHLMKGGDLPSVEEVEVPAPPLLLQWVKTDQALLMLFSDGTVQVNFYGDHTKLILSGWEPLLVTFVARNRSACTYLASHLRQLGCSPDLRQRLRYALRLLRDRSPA
In words: Fluorescence polarization competitive binding assay, PLK3 PBD. The method, then: (§3) The binding of fluorescein-labelled tracer peptides used for both assays was determined to see if there was a difference in affinity for their respective PBD. A titration curve for each tracer/PLK PBD complex was generated to determine Kd values for each and therefore compare the relative binding affinities.
as §2

The next assay has as its system PC3 cells. Description: Cell cycle analysis of serum-starved PC3 cells. In kind it is cell-based. As to conditions: 200 μM, 24 hours, PC3 synchronized by serum starvation; mock 19.9%. The method, then:
To examine the cellular phenotype of PLK1 inhibition through the Polo-box domain, PC3 cells synchronized in G1 through serum starvation were treated with Compound No. 16. Cells were synchronized by serum starvation for 24 hours prior to treatment. Untreated cells were serum starved and then released into drug-free media for 24 hours (left panel) as control. Sample cells were serum starved and then treated with 200 μM Compound No. 16 for 24 hours (right panel).

In assay [6] the test system is RPE cells expressing wild-type PLK1. In kind it is cell-based. To be noted: read-out: growth inhibition, RPE cells expressing wild-type PLK1.
The target of assay [7] is T2, polo-box domain (PBD) of polo-like kinase 1 (PLK1) (UniProt P53350 367-603, limits assumed).
T2 construct: domain: polo-box domain (PBD); the background speaks of the four known human PLKs and the residue numbers (L491) fit human PLK1; also called PLK1 PBD; PBD of PLK1
T2 sequence (P53350 367-603 limits assumed): as the sequence (P53350 367-603 limits assumed) above
Description: fluorescence polarization competition on PLK1 PBD.

For assay [8], the target named is T2, polo-box domain (PBD) of polo-like …. In words: fluorescence polarization competition, displacement of tracer peptide from PLK1 PBD. The source says: (§4) According to the assay, binding of a fluorescent tracer peptide to a protein increased polarization of the emitted fluorescence. […] The ability of test molecules to bind to the PBD was quantitated by a reduction in mP values that occurred as the tracer was displaced from the PBD, and plotted to calculate as an IC₅₀ value.

For assay [9], the target named is polo-like kinase 1 (PLK1), wild type, in cells (UniProt P53350 2-603, limits assumed). In words: cell-based or functional assay.
Chain of polo-like kinase 1 (PLK1), wild type, in cells (P53350 2-603 limits assumed): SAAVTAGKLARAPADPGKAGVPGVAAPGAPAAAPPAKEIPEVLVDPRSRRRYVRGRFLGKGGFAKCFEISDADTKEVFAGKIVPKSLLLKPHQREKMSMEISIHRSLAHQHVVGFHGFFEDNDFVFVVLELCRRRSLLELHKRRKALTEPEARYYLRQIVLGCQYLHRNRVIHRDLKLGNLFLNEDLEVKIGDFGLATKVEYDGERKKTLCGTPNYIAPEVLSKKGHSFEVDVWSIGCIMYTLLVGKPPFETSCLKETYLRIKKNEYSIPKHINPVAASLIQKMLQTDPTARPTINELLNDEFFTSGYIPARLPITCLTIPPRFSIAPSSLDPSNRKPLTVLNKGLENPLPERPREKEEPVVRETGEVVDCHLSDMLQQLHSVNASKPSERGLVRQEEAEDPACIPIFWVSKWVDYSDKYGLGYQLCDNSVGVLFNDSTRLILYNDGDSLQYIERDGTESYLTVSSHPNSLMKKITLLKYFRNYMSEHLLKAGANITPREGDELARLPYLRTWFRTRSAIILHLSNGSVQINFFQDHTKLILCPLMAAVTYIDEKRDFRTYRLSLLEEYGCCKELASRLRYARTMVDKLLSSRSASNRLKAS
For assay [10], the target named is polo-box domain (PBD) of polo-like kinase 1 (PLK1) (UniProt P53350). In words: from FP IC50s; PLK1 PBD against PLK3 PBD.
For assay [11] the target is unchanged. Description: fluorescence polarization competition, displacement of tracer peptide from PLK1 PBD.
Assay [12] concerns the target polo-box domain (PBD) of polo-like kinase 3 (PLK3) (UniProt Q9H4B4). Description: fluorescence polarization competition, displacement of tracer peptide from PLK3 PBD.
Assay [13] concerns the target T3, polo-box domain (PBD) of polo-like kinase 3 (PLK3) (UniProt Q9H4B4 335-646, limits assumed).
T3 construct: domain: polo-box domain (PBD); also called PLK3 PBD; PBD of PLK3
T3 sequence (looked up): T1 sequence (Q9H4B4 335-646 limits assumed)
Described as above. The protocol: as §4, §3, §2

Assay [14] addresses T3, polo-box domain (PBD) of polo-like …. Description: fluorescence polarization titration of tracer with PLK3 PBD. The protocol:
as §4, §3

Chain of PLK1 PBD (P53350 367-603 limits assumed): as the sequence (P53350 367-603 limits assumed) above

As to GPLATS[pT]PNGL (SEQ ID NO: 8), the fold reduction of affinity against the PLK3 consensus peptide (SEQ ID NO: 7) was 2 fold in assay [1] and 3 fold in [2]. The Selectivity Index in assay [3] is 2860.
With `CCCCCCCCCc1ccc(C(=O)N[C@@H](CO)C(=O)N[C@H](C(=O)N[C@@H](C)C(=O)N[C@H](C(N)=O)[C@@H](C)CC)[C@@H](C)OP(=O)(O)O)cc1` [Compound 18] (X1-S[pT]AI-NH2; N-terminus assumed), in assay [4], the “BubR1 phosphorylation (anti-BubR1 immunoblot)” value is listed as “inhibited the BubR1 phosphorylation” and the “mitotic block (anti-pHH3 immunoblot)” value is listed as “blocked the cells at mitosis”.
In the case of `CCCCCCCCc1ccc(C(=O)N[C@@H](CO)C(=O)N[C@H](C(=O)N[C@@H](C)C(=O)N[C@H](C(=O)O)[C@@H](C)CC)[C@@H](C)OP(=O)(O)O)cc1` [Compound 15] ({Benzoyl(4-octyl)}-S[pT]AI-OH; C-terminus assumed), the IC50 came out at 128 µM in the assay on HeLa cells, 55.7 µM with PC-3 cells and 79.5 µM in the assay on A549 cells. Further, in assay [5], the “sensitivity of RPE cells to FLIPs, in words” value was “sensitive”.
For the molecule `CCCCCCCCc1ccc(C(=O)N[C@@H](CO)C(=O)N[C@H](C(=O)N2CCC[C@H]2C(=O)N[C@@H](CC(C)C)C(=O)O)[C@@H](C)OP(=O)(O)O)cc1` [Compound 16] ({Benzoyl(4-octyl)}-S[pT]PL-OH; C-terminus assumed), on PLK1 PBD, the “fold reduction of PLK1 PBD binding relative to parent compound” value is reported as 3-4 fold. Besides, the “fold reduction of PLK3 PBD binding relative to parent compound” value at PLK3 PBD is given as 3-4 fold. The IC50 stood at 620 ± 72.5 µM at PLK3 PBD (competition with fluorescent tracer peptide, read-out: PLK3 PBD FP IC50); 158 µM in [6]; 86.8 µM in [5] (C67V mutant PLK1, read-out: growth inhibition, RPE cells expressing PLK1 C67V mutant). In addition, in the assay on PC3 cells, the “accumulation in G2/M” value stood at 53%. In assay [5], the “sensitivity of RPE cells to FLIPs, in words” value is on record as “sensitive”.
For the molecule {4‑(propylamino)benzoyl}-S[pT]PNGL (also: further groups not given here, see m14; also called Compound No. 9) [Compound #9, propylamino FLIP (R1 = NCH2CH2CH3)], the “fold increase of activity against Compound #8” value in assay [7] is above 2 fold. The molecule further came in with an IC50 in assay [8] of 5.4 µM.
In assay [8], {4‑(methylamino)benzoyl}-S[pT]PNGL (also: further groups not given here, see m14; also called Compound No. 8) [Compound #8, methylamino FLIP (R1 = NCH3)] displayed an IC50 of 11.2 µM.

B1: Compound No. 18, 4-nonyl S[pT]AI (SEQ ID NO: 13), R1 group on the C-terminal (peptide)
peptide: S[pT]AI
modifications: also: 4-nonyl R1 group on C-terminus, 'C-terminal amidated nonyl', terminal chemistry unclear
Consider B1, for which the “MTT IC50 [µM] HeLa” value in assay [9] worked out at 38.2 µM. Also, the “MTT IC50 [µM] PC-3” value in assay [9] stood at 27 µM. This molecule also returned a Selectivity Index in [10] of 78. Besides, the IC50 in assay [11] worked out at 1.23 µM; in assay [12] it was 95.9 µM.
On to {Benzoyl(4-octyl)}-S[pT]PL [Compound No. 16, 4-octyl S[pT]PL (SEQ ID NO: 14)], for which, in assay [9], the “MTT IC50 [µM] A549” value came out at 160 µM, the “MTT IC50 [µM] HeLa” value amounted to 142 µM and the “MTT IC50 [µM] PC-3” value came out at 103 µM. Besides, in [10], the Selectivity Index came out at 2580. For the same molecule, the fold weaker affinity against Compound No. 15 in assay [1] was 3 to 4 fold. Moreover, in [2], the fold weaker affinity against Compound No. 15 lay within 3 to 4 fold. The molecule also returned an IC50 in assay [11] of 1.2 µM.

B2: Compound No. 17, 4-octyl S[pT]AI (SEQ ID NO: 13), R1 group on the C-terminal (peptide)
peptide: S[pT]AI
modifications: also: 4-octyl R1 group on C-terminus, 'C-terminal amidated octyl', terminal chemistry unclear
For B2, in assay [9], the “MTT IC50 [µM] HeLa” value turned out to be 38.9 µM. Besides, the “MTT IC50 [µM] PC-3” value in [9] amounted to 41.5 µM. Also, in [10], the Selectivity Index was 79. The IC50 in [11] was found to be 1.49 µM; in assay [12], 117 µM.
For LLCS[pT]PNGL (also called native Cdc25C peptide) [Cdc25C PBD substrate peptide LLCS[pT]PNGL (SEQ ID NO: 1)], the Selectivity Index in assay [3] was above 17000. For the same molecule, the figures for the IC50 in assay [11] and in assay [13] were 0.17 µM and above 600 µM, respectively.
For {Benzoyl(4-octyl)}-S[pT]AI [Compound No. 15, 4-octylbenzamide N-capped S[pT]AI (SEQ ID NO: 13)], in assay [9], the “MTT IC50 [µM] A549” value turned out to be 79.5 µM, the “MTT IC50 [µM] HeLa” value was 128 µM and the “MTT IC50 [µM] PC-3” value is 55.7 µM. The Selectivity Index in assay [10] amounted to 1860. In addition, in [11], the IC50 was found to be 0.41 µM. In addition, in assay [12], the IC50 was 153 µM.

B3: PLK3 binding tracer (fluorescein-labelled SEQ ID NO: 7) (peptide)
peptide: GPLATS[pT]PKNG
modifications: also: fluorescein-labelled, site not given here
notes: also called PLK3 tracer; fluorescein-labelled tracer for the PLK3 PBD
As to B3, the Kd in assay [14] came to 0.0272 µM.
